Measured values: patent US20240360436A1

T1: TIGIT antigen (UniProt Q495A1)
T1 sequence (looked up): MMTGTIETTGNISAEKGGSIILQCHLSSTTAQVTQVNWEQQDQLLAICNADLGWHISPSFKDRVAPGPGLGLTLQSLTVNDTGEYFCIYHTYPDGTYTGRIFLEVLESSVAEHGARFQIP


biological target: T1, TIGIT antigen; assay: ELISA on TIGIT antigen, OD405

ELISA OD405 Reading [OD405]	Binder
0.471	TT357 (Fab, part only; not given: Tiragolumab light chain, V domains shown, part only) VH: QVQLVQSGGGLVQPGGSLRLSCAASGFTFSRYWMTWVRQAPGKGLEWVANTNQDGSETYYVDSVKGRFTISRDNAKNSLYLQMNSLRAEDTAVYYCARRWSGYHDGSGYDYFDYWDQGTLVTVSS
0.547	TT321 (Fab, part only; not given: Tiragolumab light chain, V domains shown, part only) VH: EVQLVESGGGLVQPGGSLRLSCAASGFTFNMYAMSWVRQGPGKGLEWVSTISGGAGSTYYADSVKGRFTISRDNSKNTVYLQMNSLRAEDTAVYYCASEVVAATTLDYWGQGTTVTVSS
0.474	TT385 (Fab, part only; not given: Tiragolumab light chain, V domains shown, part only) VH: EVQLVESGPEVKKPGTSVKVSCKASGLTFSRSAVQWLRQARGQRLEWIGWVDVASSNTNYAQKFQERVTITRDMSTSTAYMELSNLRTEDTAVYYCAADLYGFWGVQGFDPWGQGTMVTVSS
